T1: recombinant E protein domain III of DENV-2, flag and hexahistidine tagged (dengue virus type 2)
T1 chain: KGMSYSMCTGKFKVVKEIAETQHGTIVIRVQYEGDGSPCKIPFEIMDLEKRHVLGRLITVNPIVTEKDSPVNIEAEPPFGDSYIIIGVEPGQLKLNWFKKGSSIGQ


Molecular target: T1, recombinant E protein domain III of …
Assay: SPR

| Binder | koff [s⁻¹] |
| --- | --- |
| humanized DB32-6 monoclonal antibody (antibody, V domains shown) VH: EVQLQQSGAELVKPGASVNLSCTASGFNIKDTYIHWVKQRPEQGLEWIGRIDPENGNAKYDPNFQAKATIAADTSSNTAYLQLSSLTSEDTAVYYCVRTGSFWYFDVWGQGTLVTVSS VL: not shown | 1.7e-06 |
| murine DB32-6 monoclonal antibody (antibody) chain 1: QVQLQQSGAELVKPGASVKLSCTASGFNIKDTYIHWVKQRPGQGLEWIGRIDPENGNAKYDPNFQAKATITADTSSNTAYLHLSSLTSEDTAVYYSVRTGSFWYFDVWGAGTTVTVSS chain 2: not shown | 1.7e-06 |

From PMC3341331 (2012)
